Consider two molecules from article doi:10.1101/2025.08.12.669934 (bioRxiv, 2025).

Test [1] concerns the target Vps13 F^2465A Y^2466A ^GFP (S. cerevisiae, UniProt Q07878 1-3144, F^2465A | Y^2466A). Briefly: co-IP.
Another test has as its target Vps13^GFP (wild type) (S. cerevisiae, UniProt Q07878 1-3144). Briefly: co-IP.

B1: Ypt35-3HA (natural protein, S. cerevisiae, UniProt P38815 1-214, looked up)
chain: MSDKISFLPPEPIQLLDEDSTEPELDIDSQQENEGPISASNSNDSTSHSNDCGATITRTRPRRSSSINANFSFQKAHVSDCTIVNGDHGTKFAVWRITVFLEPNLKAFAAKRESYKIQTYKRYSDFVRLRENLLTRIKTAKPEKLNCLQIPHLPPSVQWYSSWKYQEVNLNKDWLAKRQRGLEYFLNHIILNSSLVEMTKDILIQFLEPSKRVA
With B1, the “percent recovery relative to WT” value in test [1] was found to be 24%.

B2: Ypt35 P^10,12A -3HA (natural protein, S. cerevisiae, UniProt P38815 1-214, looked up)
chain: MSDKISFLPAEAIQLLDEDSTEPELDIDSQQENEGPISASNSNDSTSHSNDCGATITRTRPRRSSSINANFSFQKAHVSDCTIVNGDHGTKFAVWRITVFLEPNLKAFAAKRESYKIQTYKRYSDFVRLRENLLTRIKTAKPEKLNCLQIPHLPPSVQWYSSWKYQEVNLNKDWLAKRQRGLEYFLNHIILNSSLVEMTKDILIQFLEPSKRVA
With B2, the “percent recovery relative to WT” value with Vps13^GFP (wild type) stood at 19%.
